Test results reported in patent EP2225268B1.
Values belong to the molecule of their own block, whether it stands above or below them.

Key:
[1] = target: Native NGAL purchased from Diagnostics Development (Uppsala, Sweden), non-reduced (UniProt P80188); experiment: … sandwich CMIA, capture HYB 211-01, detection acridinium-HYB 211-02; NGAL 50 ng/mL
[2] = target: Wild-type recombinant human NGAL dimer calibrators treated with DTT (human) (UniProt P80188); experiment: as above
[3] = target: Wild-type recombinant human NGAL dimer expressed in CHO cells (human) (UniProt P80188); experiment: as above
[4] = target: Wild-type recombinant human NGAL monomer expressed in CHO cells (human) (UniProt P80188); experiment: as above
[5] = target: Wild-type recombinant human NGAL dimer calibrators treated with DTT (human) (UniProt P80188); experiment: … sandwich CMIA, capture HYB 211-01, detection acridinium-HYB 211-02; calibrator C, NGAL 50 ng/mL
[6] = target: Wild-type recombinant human NGAL dimer expressed in CHO cells (human) (UniProt P80188); experiment: as above
[7] = target: Wild-type recombinant human NGAL monomer expressed in CHO cells (human) (UniProt P80188); experiment: as above
[8] = target: Wild-type recombinant human NGAL dimer calibrators treated with DTT (human) (UniProt P80188); experiment: … sandwich CMIA, capture HYB 211-01, detection acridinium-HYB 211-02; calibrator E, NGAL 600 ng/mL
[9] = target: Wild-type recombinant human NGAL dimer calibrators treated with DTT (human) (UniProt P80188); experiment: … sandwich CMIA, capture HYB 211-01, detection acridinium-HYB 211-02; curve fit with monomer calibrators; target 600 ng/mL
[10] = target: Wild-type recombinant human NGAL dimer expressed in CHO cells (human) (UniProt P80188); experiment: as above
[11] = target: Wild-type recombinant human NGAL monomer expressed in CHO cells (human) (UniProt P80188); experiment: as above
[12] = target: Wild-type recombinant human NGAL dimer calibrators treated with DTT (human) (UniProt P80188); experiment: … sandwich CMIA, capture HYB 211-01, detection acridinium-HYB 211-02; DTT-treated against untreated dimer calibrator; target 5 ng/mL
[13] = target: Wild-type recombinant human NGAL dimer calibrators treated with DTT (human) (UniProt P80188); experiment: … sandwich CMIA, capture HYB 211-01, detection acridinium-HYB 211-02; DTT-treated against untreated dimer calibrator; target 50 ng/mL
[14] = target: Wild-type recombinant human NGAL dimer calibrators treated with DTT (human) (UniProt P80188); experiment: … sandwich CMIA, capture HYB 211-01, detection acridinium-HYB 211-02; DTT-treated against untreated dimer calibrator; target 250 ng/mL
[15] = target: Wild-type recombinant human NGAL dimer calibrators treated with DTT (human) (UniProt P80188); experiment: … sandwich CMIA, capture HYB 211-01, detection acridinium-HYB 211-02; DTT-treated against untreated dimer calibrator; target 1000 ng/mL
[16] = target: Wild-type recombinant human NGAL dimer expressed in CHO cells (human) (UniProt P80188); experiment: … sandwich CMIA, capture 1-2322-455, detection acridinium-1-903-430; NGAL 50 ng/mL
[17] = target: Wild-type recombinant human NGAL monomer expressed in CHO cells (human) (UniProt P80188); experiment: as above
[18] = target: Wild-type recombinant human NGAL dimer calibrators with TCEP in the reaction mixture (human) (UniProt P80188); experiment: … sandwich CMIA, capture 1-2322-455, detection acridinium-1-903-430; TCEP in reaction; NGAL 5 ng/mL
[19] = target: Wild-type recombinant human NGAL monomer expressed in CHO cells (human) (UniProt P80188); experiment: … sandwich CMIA, capture 1-2322-455, detection acridinium-1-903-430; monomer calibrator plus TCEP; NGAL 5 ng/mL
[20] = target: Wild-type recombinant human NGAL dimer expressed in CHO cells (human) (UniProt P80188); experiment: … sandwich CMIA, capture 1-2322-455, detection acridinium-1-903-430; curve fit with monomer calibrators; target 5 ng/mL
[21] = target: Wild-type recombinant human NGAL monomer expressed in CHO cells (human) (UniProt P80188); experiment: as above
[22] = target: Wild-type recombinant human NGAL dimer calibrators with TCEP in the reaction mixture (human) (UniProt P80188); experiment: … sandwich CMIA, capture 1-2322-455, detection acridinium-1-903-430; TCEP in reaction; curve fit with monomer calibrators; target 5 ng/mL
[23] = target: Wild-type recombinant human NGAL dimer calibrators with TCEP in the reaction mixture (human) (UniProt P80188); experiment: … sandwich CMIA, capture 1-2322-455, detection acridinium-1-903-430; TCEP in reaction; curve fit with monomer calibrators; target 50 ng/mL
[24] = target: Wild-type recombinant human NGAL monomer expressed in CHO cells (human) (UniProt P80188); experiment: … sandwich CMIA, capture 1-2322-455, detection acridinium-1-903-430; monomer calibrator plus TCEP; curve fit with monomer calibrators; target 50 ng/mL
[25] = target: Wild-type recombinant human NGAL monomer expressed in CHO cells (human) (UniProt P80188); experiment: … sandwich CMIA, capture 1-2322-455, detection acridinium-1-903-430; monomer calibrator plus TCEP; curve fit with monomer calibrators; target 250 ng/mL

RLUs [1]: 151000 RLUs
RLUs [2]: 101000 RLUs
RLUs [3]: 31500 RLUs
RLUs [4]: 101000 RLUs
RLUs [5]: 101000 RLUs
RLUs [6]: 31500 RLUs
RLUs [7]: 101000 RLUs
RLUs [8]: 676000 RLUs
Curve Fit Results [9]: 574 ng/mL
Curve Fit Results [10]: 161 ng/mL
Curve Fit Results [11]: 598 ng/mL
% Increase due to DTT [12]: 229%
% Increase due to DTT [13]: 247%
% Increase due to DTT [14]: 229%
% Increase due to DTT [15]: 277%
Molecule: anti-NGAL antibody HYB 211-01 from AntibodyShop A/S, Gentofte, Denmark

RLUs [16]: 76800 RLUs
RLUs [17]: 240000 RLUs
RLUs [18]: 15000 RLUs
RLUs [19]: 29300 RLUs
Curve Fit Results [20]: 1.2 ng/mL
Curve Fit Results [21]: 4.7 ng/mL
Curve Fit Results [22]: 2.2 ng/mL
Curve Fit Results [23]: 24.5 ng/mL
Curve Fit Results [24]: 48.6 ng/mL
Curve Fit Results [25]: 266 ng/mL
B1: antibody produced by murine hybridoma cell line 1-2322-455 having ATCC Accession No. PTA-8024 (antibody, V domains shown)
VH: EVQLVESGGGLVQPGGSLKLSCAASGFTFNNYYMSWVRQTPERRLEWVAYISSSGGSTYYSDSVRGRFTISRDTARNTLYLQMTSLKSEDTAMYYCARHFGDYSYFDYWGQGTTLTVSS
VL: DIQMTQSPASLSASVGETVTITCRASENFYSYLAWYQQKQGKSPQLLVYNAKTLAEGVPSRFSGSGSGTQFSLKINSLQPEDFGTYYCQHHYDIPLTFGAGTKLELKR
